According to article PMC8531357, “Regulation of plant phototropic growth by NPH3/RPT2-like substrate phosphorylation and 14-3-3 binding” (Nature Communications, 2021):
Positions count from the first letter of the chain named. Each block holds one molecule with its values, some of them ahead of it.

Key:
14-3-3 Epsilon = 14-3-3 Epsilon (UniProt P48347); experiment: far-western of anti-GFP IP, GST-14-3-3 probe; settings: reference: wild-type GFP-NPH3; sites S744
GFP-NPH3 S746A = biological target: T1, GFP-NPH3 S746A (Arabidopsis, UniProt Q9FMF5 1-746, S746A, phosphoserine at 744 after blue light irradiation, at a reduced level (pS744 antibody)); experiment: far-Western, overlay or dot blot; GFP-Trap immunoprecipitates from etiolated seedlings irradiated with 20 µmol m^-2 s^-1 blue light for 15 min (L), separated by SDS-PAGE, on PVDF; probed with purified GST-14-3-3 or GST alone at 1 µM in 20 mM HEPES-KOH pH 7.7, 75 mM KCl, 0.1 mM EDTA, 1 mM DTT, 2% milk, 0.04% Tween-20; detected with anti-GST; settings: both partners purified
T1 construct: NPH3, Arabidopsis; source: etiolated Arabidopsis nph3 seedlings expressing NPH3::GFP-NPH3 S746A; total protein extract, anti-GFP immunoprecipitated
T1 sequence (looked up): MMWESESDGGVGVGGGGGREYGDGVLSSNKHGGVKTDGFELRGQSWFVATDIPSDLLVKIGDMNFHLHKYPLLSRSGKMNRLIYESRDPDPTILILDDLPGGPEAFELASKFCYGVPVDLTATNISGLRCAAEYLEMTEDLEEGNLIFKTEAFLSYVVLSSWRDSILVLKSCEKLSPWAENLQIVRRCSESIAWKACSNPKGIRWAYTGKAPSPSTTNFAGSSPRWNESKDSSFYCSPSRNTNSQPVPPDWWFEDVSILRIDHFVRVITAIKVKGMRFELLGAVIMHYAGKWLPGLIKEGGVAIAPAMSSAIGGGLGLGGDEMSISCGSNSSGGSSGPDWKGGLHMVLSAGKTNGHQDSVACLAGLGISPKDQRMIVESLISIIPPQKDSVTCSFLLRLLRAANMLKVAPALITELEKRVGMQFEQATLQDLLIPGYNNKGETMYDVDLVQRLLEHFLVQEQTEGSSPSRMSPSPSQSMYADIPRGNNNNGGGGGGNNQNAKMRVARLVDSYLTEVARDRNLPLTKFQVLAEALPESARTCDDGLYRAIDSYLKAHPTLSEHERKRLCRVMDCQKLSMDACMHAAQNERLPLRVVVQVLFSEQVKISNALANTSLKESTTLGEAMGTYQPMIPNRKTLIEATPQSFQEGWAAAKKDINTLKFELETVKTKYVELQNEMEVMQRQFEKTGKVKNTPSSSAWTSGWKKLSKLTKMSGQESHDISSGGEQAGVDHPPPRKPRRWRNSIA

[1] = biological target: T2, GFP-NPH3 (NON-PHOTOTROPIC HYPOCOTYL 3) (Arabidopsis, UniProt Q9FMF5 1-746, phosphoserine at 744 after blue light irradiation (pS744 antibody), not in darkness; phosphorylated on multiple other sites in darkness (including S213, S223, S233, S237), dephosphorylated after blue …); experiment: as above; settings: both partners purified
T2 construct: NPH3 (NON-PHOTOTROPIC HYPOCOTYL 3), Arabidopsis; S746 is the last residue; The state of the protein differs between dark and blue-light-treated seedlings; the two are kept apart by the assay; also called NPH3::GFP-NPH3; source: etiolated Arabidopsis nph3 seedlings expressing NPH3::GFP-NPH3; total protein extract, anti-GFP immunoprecipitated
T2 sequence (looked up): T1 sequence (looked up) with A746S

binding against the reference (14-3-3 Epsilon): lost
Molecule: NPH3 (NON-PHOTOTROPIC HYPOCOTYL 3) (from UniProt Q9FMF5) S744A

binding result (GFP-NPH3 S746A): binds
binding result [1]: binds
B1: GST-14-3-3 Epsilon (natural protein, Arabidopsis, UniProt P48347 1-254, looked up)
chain: MENEREKQVYLAKLSEQTERYDEMVEAMKKVAQLDVELTVEERNLVSVGYKNVIGARRASWRILSSIEQKEESKGNDENVKRLKNYRKRVEDELAKVCNDILSVIDKHLIPSSNAVESTVFFYKMKGDYYRYLAEFSSGAERKEAADQSLEAYKAAVAAAENGLAPTHPVRLGLALNFSVFYYEILNSPESACQLAKQAFDDAIAELDSLNEESYKDSTLIMQLLRDNLTLWTSDLNEEGDERTKGADEPQDEN
notes: Arabidopsis 14-3-3 isoform Epsilon (epsilon group member), expressed from pGEX-4T1 as a translational fusion with GST; source: E. coli BL21(DE3), purified (glutathione agarose)

binding result [1]: binds
B2: GST-14-3-3 Lambda (natural protein, Arabidopsis, UniProt P48349 1-248, looked up)
chain: MAATLGRDQYVYMAKLAEQAERYEEMVQFMEQLVTGATPAEELTVEERNLLSVAYKNVIGSLRAAWRIVSSIEQKEESRKNDEHVSLVKDYRSKVESELSSVCSGILKLLDSHLIPSAGASESKVFYLKMKGDYHRYMAEFKSGDERKTAAEDTMLAYKAAQDIAAADMAPTHPIRLGLALNFSVFYYEILNSSDKACNMAKQAFEEAIAELDTLGEESYKDSTLIMQLLRDNLTLWTSDMQEQMDEA
notes: Arabidopsis 14-3-3 isoform Lambda (non-epsilon group member), expressed from pGEX-4T1 as a translational fusion with GST; source: E. coli BL21(DE3), purified (glutathione agarose)
